Test: yeast display, Sf9 membrane polyspecificity reagent, FACS + sequencing; frameworks hold sequencing errors
How it was run: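 Nanobodies from a synthetic yeast display library (Saccharomyces cerevisiae BJ5465), induced 36–48 hours with galactose, were stained 1 hour at 4 °C with 10% biotinylated, detergent-solubilized Sf9 membrane reagent, enriched on streptavidin microbeads, then FACS-sorted. Anti-HA (expression) and streptavidin (reagent binding) fluorescence set low and high (top ~1%) gates. Polyreactivity labels come from the gate of origin. Genes were colony-PCR amplified, MiSeq 2 × 250 sequenced and filtered by CDR length.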

| Sequence | polyreactivity (PSR sort gate) |
| --- | --- |
| QVQLVESGGGLVQAGGSLGLSCAASGFIVGYYTMGWDRQAPGKERELVAAISSSGGRTYDADSVKGRFTISRDKAKNTVYFQMNSLKPEDTAVYYCNADRTLRFGYGYCGQGTQVTVSS | low polyreactivity |
| QVQLVESGGGLVQAGGSLGLSCAASGIIFGTYGMGWYRQAPGKERELVAAITTRGSSTYYADSVKGRFTISRDNAKNSVYLQMNSLKPEDTAVYYCAAVSVRRNRMDSWGQGTQVTVSS | high polyreactivity |
| QVQLVESGGGLVQAGGSLGLSCAASGLIFQAYAMGWYRQAPGKERELVAAINWSGDSTYYADSVKGRFTISRDNAKYTVYLQMNSLKPEDTAVYYCAARYRRAKYGYWGQGTQVTVSS | high polyreactivity |
| QVQLVESGGGLVQAGGSLGLSCAASGLTFTHYTMGWYRQAPGKERELVAGISQTGGSTYYADSVKGRFTISRDNAKNTVYLQMNSLKPEDTAVYYCSRVFPRPRTGYYYWGQGTQVTVSS | high polyreactivity |
| QVQLVESGGGLVQAGGSLGLSCAASGNMFGRYAMGWYRQAPGKEREYVATITYSGGSTYYADSVKGPFTISRDNAKNTVYLQMNSLKQEDTAVYYCAARVGRPTLVAAKYDYWGQGTQVTVSS | high polyreactivity |
| QVQLVESGGGLVQAGGSLGLSCAASGRTFFDYAMGWYRQAPGKERELVAAINWSGGRTYYADSVKGRFSISRDNAKNTVYLQMNSLKPEDTAVYDCNVYTRGRYEYWGQGTQVTVSS | low polyreactivity |
| QVQLVESGGGLVQAGGSLGLSCAASGRTFGPYAMGWYRQAPGKERELVAAISASGASTSYADSVKGRFTIARDNAKNTVYLQMNSLKPEDTAVYYCARSYYHRPFGYWGQGTQVTVSS | low polyreactivity |
| QVQLVESGGGLVQAGGSLGLSCAASGRTFGRYVMGWYRLAPGTEWELVAAIRSSGGGTYYADSVKGRFTISRDNAKNTVYLQMNSLKPEETAVYYCAKEYSIGIRWEYDYWGQGTQVTVSS | low polyreactivity |
| QVQLVESGGGLVQAGGSLGLSCAASGSTLYGNAMGWYRQAPGKERELVAAINTGGSTNYADSVKGRFTISRDNAKNTVYVQMNSLKPEDTAVYYCAADYEWDATHDYWGQGTQVTVSS | low polyreactivity |
| QVQLVESGGGLVQAGGSLGLSCAAYGSTFRYYAMGWYRQAPGKERELVAAISSAGNTYYADSVKGRFTISRDNAKNTVYLQMNSLKPEDTAVYYCAAKYSYYTYAGDGGLFSCSYGYWGQGTQVTVSS | low polyreactivity |
| QVQLVESGGGLVQAGGSLLISCAASGRIFYYNTMGWSRQEPGKESELVAAITTNGGSTYYADSVKGRFTISRDNAKITVYLQMNSLNPEDTAVYYCNRDRYPYYSAYNYWGQGTQVTVSS | low polyreactivity |
| QVQLVESGGGLVQAGGSLLLICAASGFIFVPYAMGWYRQAPGKEREFVATITWRGDSTYYADSVKGRFTISRDNAKNTVYLQMNSLKPEDTAVYYCAVYPIRLWAYDYWGQGTQVTVSS | low polyreactivity |
| QVQLVESGGGLVQAGGSLLLICAASGSILGTNAMGWYRQAPGKERELVAAISSSGRTSYADSVKGRFTISRDNAKNTVSLQMNSLKPEDTAVYYCNASNYIVLIIDPDAAPWLYDYWGQGTQVTVSS | low polyreactivity |
| QVQLVESGGGLVQAGGSLLLICSASGSTFVRHAMGWYRHAPGKESELDAAISTRGGSTSYADSVKGRFTISRDNSKNSVYLQMKSLKQEDTAVYYCAKVLAYSQGIRHGYWGQGTQVTVSS | low polyreactivity |
| QVQLVESGGGLVQAGGSLLLRCAASGSIFPWNTMGWNRQAPGKERELVARISTSGASTYYADSVKGRFTISRDNAKNTVYLQMNSRKPEDTAVYYGAARDWSHRPRGYDYWGQGTQVTVSS | high polyreactivity |
| QVQLVESGGGLVQAGGSLLLSCAASGFTFRYYAMGWYRQAPGKERELVAAITGSGTRTYYADSVKGRFTISRDYGKNTVYLQMNSLKPEDPAVYYCNAPRQPRWFDYWGQGTQVTVSS | high polyreactivity |
| QVQLVESGGGLVQAGGSLLLSCAASGFTLEKNAMGWYRTAPGKERELVADISSTDSTNYADSVKGRFTISRDNAKITVYFQMNSVKPEDTAVYYCGRYDGPGTEEFDYWGQGSQVTVSS | low polyreactivity |
| QVQLVESGGGLVQAGGSLLLSCAASGGTFGGYTMGWYRQAPVKERELVAAITRSGSSTFYADSVKGRFTISRDNAKNTVYLQMNSLKPEDTAVYYCAALWHAVFYADYDYWGQGTQVSVSS | high polyreactivity |
| QVQLVESGGGLVQAGGSLLLSCAASGIIFRYNTMGLYRQAPGKERELVAAIRTTGGSTNYADSVKGRFTISRDNAKNTVYLQMNSLKPEDTAVYYCNKGVSSRAFDYWGQGTQVTVSS | low polyreactivity |
| QVQLVESGGGLVQAGGSLLLSCAASGITSWYYVMGWYRQAPGKERELVAAITRSGGSTYYADSVKGRFTISRDTAKNTVFLQMNSLKPEDTAVYYCAARSYPQRWTTYPYGYWGQGTQVTVSS | high polyreactivity |
| QVQLVESGGGLVQAGGSLLLSCAASGRIFRYNAMGWYRQAPGKERELVAAISWTVGRTYYADSVKGRFTISRDNAMNTVYLQMNSLKPEDTAVYYCATYFRVWYRSYDYWGQGTQVTVSS | high polyreactivity |

| Sequence | polyreactivity (PSR sort gate) |
| --- | --- |
| QVQLVESGGGLVQAGGSLLLSCAASGRTFATNAMGWNRQAPGKERELVADISGGGSTYYADSVKGRFTISRDNAKNTVYLQMNSMKPEDTAVYYCAARDYHWFQWYDYWGQGTQVTVSS | low polyreactivity |
| QVQLVESGGGLVQAGGSLLLSCAASGRTFYYNDMGWYRQAPGKERELVASISYGGSTYYADSVKGRFTISRDNAKNTVYLQMNSLKPEDTAVYYCATVDWRWRYARRPRYDYWGQGTQVTVSS | high polyreactivity |
| QVQLVESGGGLVQAGGSLLLSCAASGSIFFPNAMGWYRQAPGKERELVAAINWSGDSTYYADSVKGRFTISRDNAKNTVYLQMNSLKPVDTAVYSCNATYPWFDYDYWGQGTQVTVSS | low polyreactivity |
| QVQLVESGGGLVQAGGSLLLSCAASGSIFQQYAMGGSRQAPGKERDLVAAISWGDGSTYYADSVKGRFTISRDNAKNTVYLQMNSLKPEDTAVYYCNAYASAPLWSLEDDYWGKGTQVTVSS | low polyreactivity |
| QVQLVESGGGLVQAGGSLLLSCAASGSLFYRYAMGWYRQAPGKERELVAAISWGGGRTYYADSVKGRFTISRDNAKNTVYLQMNRLKPEDTAVYSCNREKYVRWIREDYDYWGQGTQVTVSS | high polyreactivity |
| QVQLVESGGGLVQAGGSLLLSCAASGSTLGRYAMGWYRQAPGKERELVASITWSDDSTYYADSVKGRFTISRDNAKNTVYLQMNSLKPEDTAVYYCAAAGNLYTYRFYYWGQGTQVTVSS | low polyreactivity |
| QVQLVESGGGLVQAGGSLLLSCAASGSTYKYAMGWYRQAPGKERELVAVISSGGSTDDADSVKGRFTISRDNAKNTVYLQMNSLKPEDTAVYYCAADSGFVSIGSYYWGLGTQVTVSS | low polyreactivity |
| QVQLVESGGGLVQAGGSLLLSCAASGYTFKSYVMGWYRQAPGKERELVAAITSIGGSTYYADSVKGRFTISRDNAKNNVYLQMNSLKPEDTALYYCAKYPGISGYNYWGQGTQVTVSS | high polyreactivity |
| QVQLVESGGGLVQAGGSLLLSCAATGITFVPNAMGWYRQAPGKERELVDAISTRGGSTYYADSVKGRFTISRDNAKNTVYLQMNSLKPEDTAVYYCNALITGRWFDYWGQGTQVTVSS | high polyreactivity |
| QVQLVESGGGLVQAGGSLLLSSADSGSTFNYNAMGWYRQSHGKERELVAVINSGGSTYYADSVKGRFTISRDNAKNTVYLQMNSLKPEDTAVYYCAAATYRQQWHYYWGQGTQGTVSS | high polyreactivity |
| QVQLVESGGGLVQAGGSLPLSCAASGATFTFYTMRSYRQAPGKERELVATISWRGGNTYYADSVKGRFTISRDNAKNTVYLQMNSLKPEDTAVYYCNAAPYRRGYGFREYDYWGQGTQVTVSS | high polyreactivity |
| QVQLVESGGGLVQAGGSLPLSCAASGFTFDKYAMGWYRQAPGKERELVAAISNSGGRTYYADSVKGRFTISRDNAKKTVYLQMNSLKPEDTAVYYCAAKFRYQYVRVAREYYYWGQGTQVTVSS | high polyreactivity |
| QVQLVESGGGLVQAGGSLPLSCAASGIIFSYNAKGWDRQAPGKERELDAAIRENGGSTYYADSVKGRFTISRDNAKNTVYLQMNSLKPEDTAGYYCAVATSYYAGYEYDYWGQGTQVTVSS | low polyreactivity |
| QVQLVESGGGLVQAGGSLPLSCAASGRIYDSYAKGWYIQAPGKERELVAAISFGGDTYYADSVKGRFTISRDNAKNTVYLQMNSLKPEDTAVYYCAKDNPAALFDSWGQGTQVTVSS | low polyreactivity |
| QVQLVESGGGLVQAGGSLPLSCAASGRTFDSYTMGWYRQAPGKERELVAAIRSSGGRTYADSVKGRFTISRDNAKNTVYLQMNSLKPEDTAVYYCAAARSYWAKYYYWGQGTQVTVSS | high polyreactivity |
| QVQLVESGGGLVQAGGSLPLSCAASGRTFPFNALGWYRQAPGKEREFVAAISVGGGSTYADSVKGRFTISRDNAKNTFYLQMNSLKPEDTAVYYCAAAYTKLYYYWGQGTQVTVSS | low polyreactivity |
| QVQLVESGGGLVQAGGSLPLSCAASGSIFTYYAMGSYRQAPGKEREFVAAISRRGGSTYYADSVKGRFTISRDNAKNTVYLQMNSLKPEDTAVYYCNARDTGSSLYYWGQGTQVTVSS | high polyreactivity |
| QVQLVESGGGLVQAGGSLPLSCAASGSIFWRNAMGWYRQAPGKEREFVATITWSGDSTYYADSVKGRFTISRDNAKNTVYLQMNSLKPEDTAVYYYAAAYSNWHPGLDYWGQGTPVTVSS | low polyreactivity |
| QVQLVESGGGLVQAGGSLPLSCAASGSTFNKYTMGWSRQPPGKERELVAAITSGDSTYYADSVKGRFTISRDNAKNTVYLQMNSLKPDDTAVYYCAKSLRAYRHVIYGKPFYSWGQGTQVTVSS | low polyreactivity |
| QVQLVESGGGLVQAGGSLPLSCAASGYTFQRYAMGWYRQAPGKERELVAAITGAGGSTYYADSVKGRFTISRDNAKNTVYLQMNSLKPEDTAVYYCAARQYRRVIKHGYNYWGQGTQVTVSS | high polyreactivity |

Reference: the nanobody polyreactivity screen of Harvey et al. (2022)
